# Test results from EP4361176A1 (CHUGAI SEIYAKU KABUSHIKI KAISHA, dated 2024).
# T1: human FcγRIIa H extracellular domain (human, UniProt P12318 34-217)
# T1 construct: extracellular domain; Made by the method of WO2014104165; also called hFcγR IIa H; FcyRIIaH
# T1 sequence (looked up): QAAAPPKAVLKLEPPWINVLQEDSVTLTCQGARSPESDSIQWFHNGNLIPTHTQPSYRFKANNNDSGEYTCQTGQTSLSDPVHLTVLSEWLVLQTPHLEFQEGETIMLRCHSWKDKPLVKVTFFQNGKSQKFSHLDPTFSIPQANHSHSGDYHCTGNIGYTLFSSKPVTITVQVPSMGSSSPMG
# T2: hFcyRIIaH on hFcyRIIaH-expressing Jurkat cells (human, UniProt P12318 34-317)
# T2 sequence (looked up): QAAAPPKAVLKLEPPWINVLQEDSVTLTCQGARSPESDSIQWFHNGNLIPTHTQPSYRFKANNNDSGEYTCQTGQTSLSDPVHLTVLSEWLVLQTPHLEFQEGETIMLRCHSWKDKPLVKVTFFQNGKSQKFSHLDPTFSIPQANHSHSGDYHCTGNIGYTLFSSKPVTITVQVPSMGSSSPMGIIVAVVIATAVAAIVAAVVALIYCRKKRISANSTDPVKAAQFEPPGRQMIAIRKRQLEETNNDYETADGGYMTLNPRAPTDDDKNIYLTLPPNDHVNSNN
# Assays:
# [1] = biological target: hFcyRIIIaV on hFcyRIIIaV-expressing Jurkat cells (human, UniProt P08637 17-254); test: cell-based or functional assay
# Sequence of hFcyRIIIaV on hFcyRIIIaV-expressing Jurkat cells (P08637 17-254): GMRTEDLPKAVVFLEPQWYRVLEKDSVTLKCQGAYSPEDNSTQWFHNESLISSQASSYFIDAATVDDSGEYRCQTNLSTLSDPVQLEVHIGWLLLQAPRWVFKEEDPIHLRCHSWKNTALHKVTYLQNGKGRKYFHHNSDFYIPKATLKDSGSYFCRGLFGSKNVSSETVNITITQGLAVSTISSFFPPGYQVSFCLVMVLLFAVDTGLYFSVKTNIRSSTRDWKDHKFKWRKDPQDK
# [2] = biological target: T3, human FcγRIIIa F extracellular domain (human, UniProt P08637 17-208); test: SPR; KD for FcγRIIb divided by KD for this FcγR
# T3 construct: extracellular domain; Made by the method of WO2014104165; also called hFcγR IIIa F; FcyRIIIaF
# T3 sequence (P08637 17-208): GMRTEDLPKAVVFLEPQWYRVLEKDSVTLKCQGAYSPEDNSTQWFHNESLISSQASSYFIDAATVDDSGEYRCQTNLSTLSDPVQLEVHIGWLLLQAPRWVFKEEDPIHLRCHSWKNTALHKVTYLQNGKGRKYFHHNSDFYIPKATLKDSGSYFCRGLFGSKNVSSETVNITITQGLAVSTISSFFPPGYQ
# [3] = biological target: T1, human FcγRIIa H extracellular domain; test: SPR; KD for FcγRIIb divided by KD for this FcγR
# [4] = biological target: T2, hFcyRIIaH on hFcyRIIaH-expressing …; test: cell-based or functional assay
Binder,"EC50 value (µg/mL), ADCC reporter bioassay (fold induction of luminescence), Hepa1-6/hEREG target cells [1]",A/I ratio (KD for FcγRIIb divided by KD for each FcyR) [2],A/I ratio (KD for FcγRIIb divided by KD for each FcyR) [3],"EC50 value (µg/mL), ADCP reporter bioassay (fold induction of luminescence), Hepa1-6/hEREG target cells [4]"
"H240-Kn125/L73-k0//H240-Hl076/L73-k0 (antibody, human IgG1, kappa, Heterodimerized anti-human Epiregulin antibody, asymmetric Fc variant; also called EGL-ART1; ART1) heavy 1: QDQLVQSGAEVKKPGASVKVSCKASGFNIKDTYIQWVRQAPGQGLEWMGRIDPLRKQTKYREKFEGRVTITADTSTNTAYMELSSLRSEDTAVYYCVRSGREFDYWGQGTLVTVSSASTKGPSVFPLAPSSKSTSGGTAALGCLVKDYFPEPVTVSWNSGALTSGVHTFPAVLQSSGLYSLSSVVTVPSSSLGTQTYICNVNHKPSNTKVDKKVEPKSCDKTHTCPPCPAPEYQWGPMVFLFPPKPKDTLMISRTPEVTCVVVDVSDEEPEVKFNWYVDGVEVHNAKTKPREEQYNATYRVVSVLTVLHQDWLNGKEYKCKVSNKALPAPIEKTISKAKGQPREPQVCTLPPSRDELTKNQVSLWCLVKGFYPSDIAVEWESNGQPENNYKTTPPVLDSDGSFFLYSKLTVDKSRWQQGNVFSCSVMHEALHNHYTQKSLSLSP heavy 2: QDQLVQSGAEVKKPGASVKVSCKASGFNIKDTYIQWVRQAPGQGLEWMGRIDPLRKQTKYREKFEGRVTITADTSTNTAYMELSSLRSEDTAVYYCVRSGREFDYWGQGTLVTVSSASTKGPSVFPLAPSSKSTSGGTAALGCLVKDYFPEPVTVSWNSGALTSGVHTFPAVLQSSGLYSLSSVVTVPSSSLGTQTYICNVNHKPSNTKVDKKVEPKSCDKTHTCPPCPAPELLGGPSVFLFPPKPKDTLMISRTPEVTCVVVDVSHEEPEVKFNWYVDGVEVHNAKTKPREEQYNSTYRVVSVLTVLHQDWLNGKEYKCKVSNDALPMPIEETISKAKGQPREPQVYTLPPSRCELTKNQVSLSCAVKGFYPSDIAVEWESNGQPENNYKTTPPVLDSDGSFFLVSKLTVDKSRWQQGNVFSCSVMHEALHNHYTQKSLSLSP light: DIQMTQSPSSLSASVGDRVTITCRASQDIHKYIAWYQQKPGQAPRLLIQYTSTLQPGVPSRFSGSGSGTDYTFTISSLQPEDIATYYCLQYEQLRTFGGGTKVEIKRTVAAPSVFIFPPSDEQLKSGTASVVCLLNNFYPREAKVQWKVDNALQSGNSQESVTEQDSKDSTYSLSSTLTLSKADYEKHKVYACEVTHQGLSSPVTKSFNRGEC",0.000716 µg/mL,4950,47.4,0.0353 µg/mL
"H240-Kn461/L73-k0//H240-Hl443/L73-k0 (antibody, human IgG1, kappa, also called EGL-ART8; ART8) heavy 1: QDQLVQSGAEVKKPGASVKVSCKASGFNIKDTYIQWVRQAPGQGLEWMGRIDPLRKQTKYREKFEGRVTITADTSTNTAYMELSSLRSEDTAVYYCVRSGREFDYWGQGTLVTVSSASTKGPSVFPLAPSSKSTSGGTAALGCLVKDYFPEPVTVSWNSGALTSGVHTFPAVLQSSGLYSLSSVVTVPSSSLGTQTYICNVNHKPSNTKVDKKVEPKSCDKTHTCPPCPAPEFQWGPMVFLFPPKPKDVLMISRTPEVTCVVVDVSDEEPEVKFNWYVDGVEVHNAKTKPREEQYNATYRVVSVLPVLHQDWLNGKEYKCKVSNDALPAPEEKTISKAKGQPREPQVCTLPPSRDELTKNQVSLWCLVKGFYPSDIAVEWESNGQPENNYKTTPPVLDSDGSFFLYSKLTVDKSRWQQGNVFSCSVMHEALHNHYTQKSLSLSP heavy 2: QDQLVQSGAEVKKPGASVKVSCKASGFNIKDTYIQWVRQAPGQGLEWMGRIDPLRKQTKYREKFEGRVTITADTSTNTAYMELSSLRSEDTAVYYCVRSGREFDYWGQGTLVTVSSASTKGPSVFPLAPSSKSTSGGTAALGCLVKDYFPEPVTVSWNSGALTSGVHTFPAVLQSSGLYSLSSVVTVPSSSLGTQTYICNVNHKPSNTKVDKKVEPKSCDKTHTCPPCPAPELLAGPSVFLFPPKPKDVLMISRTPEVTCVVVDVSHEEPEVKFNWYVDGVEVHNAKTKPREEQYNATYRVVSVLPVLHQDWLNGKEYKCKVSNDALPAPEEETISKAKGQPREPQVYTLPPSRCELTKNQVSLSCAVKGFYPSDIAVEWESNGQPENNYKTTPPVLDSDGSFFLVSKLTVDKSRWQQGNVFSCSVMHEALHNHYTQKSLSLSP light: DIQMTQSPSSLSASVGDRVTITCRASQDIHKYIAWYQQKPGQAPRLLIQYTSTLQPGVPSRFSGSGSGTDYTFTISSLQPEDIATYYCLQYEQLRTFGGGTKVEIKRTVAAPSVFIFPPSDEQLKSGTASVVCLLNNFYPREAKVQWKVDNALQSGNSQESVTEQDSKDSTYSLSSTLTLSKADYEKHKVYACEVTHQGLSSPVTKSFNRGEC",0.00107 µg/mL,2350,47.2,0.0171 µg/mL
"H240-Kn456/L73-k0//H240-Hl446/L73-k0 (antibody, human IgG1, kappa, also called EGL-ART4; ART4) heavy 1: QDQLVQSGAEVKKPGASVKVSCKASGFNIKDTYIQWVRQAPGQGLEWMGRIDPLRKQTKYREKFEGRVTITADTSTNTAYMELSSLRSEDTAVYYCVRSGREFDYWGQGTLVTVSSASTKGPSVFPLAPSSKSTSGGTAALGCLVKDYFPEPVTVSWNSGALTSGVHTFPAVLQSSGLYSLSSVVTVPSSSLGTQTYICNVNHKPSNTKVDKKVEPKSCDKTHTCPPCPAPEFQWGPMVFLFPPKPKDVLMISRTPEVTCVVVDVSDEEPEVKFNWYVDGVEVHNAKTKPREEQYNATYRVVSVLPVLHQDWLNGKEYKCKVSNKALPMPEEKTISKAKGQPREPQVCTLPPSRDELTKNQVSLWCLVKGFYPSDIAVEWESNGQPENNYKTTPPVLDSDGSFFLYSKLTVDKSRWQQGNVFSCSVMHEALHNHYTQKSLSLSP heavy 2: QDQLVQSGAEVKKPGASVKVSCKASGFNIKDTYIQWVRQAPGQGLEWMGRIDPLRKQTKYREKFEGRVTITADTSTNTAYMELSSLRSEDTAVYYCVRSGREFDYWGQGTLVTVSSASTKGPSVFPLAPSSKSTSGGTAALGCLVKDYFPEPVTVSWNSGALTSGVHTFPAVLQSSGLYSLSSVVTVPSSSLGTQTYICNVNHKPSNTKVDKKVEPKSCDKTHTCPPCPAPELLAGPSVFLFPPKPKDVLMISRTPEVTCVVVDVSHEEPEVKFNWYVDGVEVHNAKTKPREEQYNATYRVVSVLPVLHQDWLNGKEYKCKVSNDALPMPEEETISKAKGQPREPQVYTLPPSRCELTKNQVSLSCAVKGFYPSDIAVEWESNGQPENNYKTTPPVLDSDGSFFLVSKLTVDKSRWQQGNVFSCSVMHEALHNHYTQKSLSLSP light: DIQMTQSPSSLSASVGDRVTITCRASQDIHKYIAWYQQKPGQAPRLLIQYTSTLQPGVPSRFSGSGSGTDYTFTISSLQPEDIATYYCLQYEQLRTFGGGTKVEIKRTVAAPSVFIFPPSDEQLKSGTASVVCLLNNFYPREAKVQWKVDNALQSGNSQESVTEQDSKDSTYSLSSTLTLSKADYEKHKVYACEVTHQGLSSPVTKSFNRGEC",0.000789 µg/mL,9940,65.2,0.0432 µg/mL
"H240-Kn443/L73-k0//H240-Hl408/L73-k0 (antibody, human IgG1, kappa, also called EGL-ART3; ART3) heavy 1: QDQLVQSGAEVKKPGASVKVSCKASGFNIKDTYIQWVRQAPGQGLEWMGRIDPLRKQTKYREKFEGRVTITADTSTNTAYMELSSLRSEDTAVYYCVRSGREFDYWGQGTLVTVSSASTKGPSVFPLAPSSKSTSGGTAALGCLVKDYFPEPVTVSWNSGALTSGVHTFPAVLQSSGLYSLSSVVTVPSSSLGTQTYICNVNHKPSNTKVDKKVEPKSCDKTHTCPPCPAPEFQWGPMVFLFPPKPKDTLMISRTPEVTCVVVDVSDEEPEVKFNWYVDGVEVHNAKTKPREEQYNATYRVVSVLTVLHQDWLNGKEYKCKVSNDALPAPIEKTISKAKGQPREPQVCTLPPSRDELTKNQVSLWCLVKGFYPSDIAVEWESNGQPENNYKTTPPVLDSDGSFFLYSKLTVDKSRWQQGNVFSCSVMHEALHNHYTQKSLSLSP heavy 2: QDQLVQSGAEVKKPGASVKVSCKASGFNIKDTYIQWVRQAPGQGLEWMGRIDPLRKQTKYREKFEGRVTITADTSTNTAYMELSSLRSEDTAVYYCVRSGREFDYWGQGTLVTVSSASTKGPSVFPLAPSSKSTSGGTAALGCLVKDYFPEPVTVSWNSGALTSGVHTFPAVLQSSGLYSLSSVVTVPSSSLGTQTYICNVNHKPSNTKVDKKVEPKSCDKTHTCPPCPAPELLAGPSVFLFPPKPKDTLMISRTPEVTCVVVDVSHEEPEVKFNWYVDGVEVHNAKTKPREEQYNATYRVVSVLTVLHQDWLNGKEYKCKVSNDALPAPIEETISKAKGQPREPQVYTLPPSRCELTKNQVSLSCAVKGFYPSDIAVEWESNGQPENNYKTTPPVLDSDGSFFLVSKLTVDKSRWQQGNVFSCSVMHEALHNHYTQKSLSLSP light: DIQMTQSPSSLSASVGDRVTITCRASQDIHKYIAWYQQKPGQAPRLLIQYTSTLQPGVPSRFSGSGSGTDYTFTISSLQPEDIATYYCLQYEQLRTFGGGTKVEIKRTVAAPSVFIFPPSDEQLKSGTASVVCLLNNFYPREAKVQWKVDNALQSGNSQESVTEQDSKDSTYSLSSTLTLSKADYEKHKVYACEVTHQGLSSPVTKSFNRGEC",0.00153 µg/mL,396,181,0.0158 µg/mL
